Laboratory results from patent US20240182563A1 (GENOME, published 2024).

Legend:
human CNTN4-rabbit Fc = biological target: T1, human CNTN4-rabbit Fc (human; rabbit, UniProt Q8IWV2 19-1000, limits assumed); assay: ELISA, plate coated with antigen-rabbit Fc, anti-human IgG Fc-HRP
T1 construct: not shown: rabbit Fc
T1 sequence (looked up): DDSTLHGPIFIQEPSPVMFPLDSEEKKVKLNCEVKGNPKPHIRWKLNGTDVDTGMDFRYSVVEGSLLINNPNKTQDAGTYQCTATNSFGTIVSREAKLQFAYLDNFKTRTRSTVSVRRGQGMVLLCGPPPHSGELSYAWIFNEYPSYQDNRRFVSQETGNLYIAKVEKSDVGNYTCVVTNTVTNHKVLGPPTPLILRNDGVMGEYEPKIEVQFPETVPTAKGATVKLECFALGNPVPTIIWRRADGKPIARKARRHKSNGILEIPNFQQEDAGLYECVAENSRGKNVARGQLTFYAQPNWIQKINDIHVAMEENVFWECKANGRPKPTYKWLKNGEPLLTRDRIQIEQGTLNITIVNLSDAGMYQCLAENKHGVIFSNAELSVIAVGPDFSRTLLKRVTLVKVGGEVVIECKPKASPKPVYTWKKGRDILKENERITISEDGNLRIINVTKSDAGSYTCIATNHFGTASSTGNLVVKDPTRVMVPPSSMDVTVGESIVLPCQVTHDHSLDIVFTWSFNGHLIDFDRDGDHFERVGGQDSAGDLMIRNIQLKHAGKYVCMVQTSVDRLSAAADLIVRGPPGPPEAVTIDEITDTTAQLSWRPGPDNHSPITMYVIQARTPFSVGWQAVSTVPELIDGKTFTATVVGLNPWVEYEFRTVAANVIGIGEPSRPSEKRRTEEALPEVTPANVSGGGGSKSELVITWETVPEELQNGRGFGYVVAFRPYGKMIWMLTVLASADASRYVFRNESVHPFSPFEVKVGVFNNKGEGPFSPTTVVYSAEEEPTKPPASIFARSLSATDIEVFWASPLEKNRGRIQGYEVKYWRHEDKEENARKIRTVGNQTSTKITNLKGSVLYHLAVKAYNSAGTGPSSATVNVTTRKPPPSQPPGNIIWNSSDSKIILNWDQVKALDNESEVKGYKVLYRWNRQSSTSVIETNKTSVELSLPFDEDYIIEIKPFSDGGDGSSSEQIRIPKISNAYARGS
Description: (§1) An ELISA tests were performed on a total of 25 scFv-hCks and a total of 27 IgGs for which the expression was confirmed in Example 1.2. An ELISA plate was coated with 200 ng of antigens (human CNTN4-rabbit Fc or mouse CNTN4-rabbit Fc). 200 ng of a negative control (human antigen-rabbit Fc) for a tagging protein was used. For antibody binding, anti-CNTN4 scFv-hCk was serially diluted from a maximum of 1 μM to 0.001 nM by 1/10×each, and anti-CNTN4 IgG was serially diluted from a maximum of 10 nM to 0.00001 nM by 1/10×each, thereby binding to the antigen. Anti-human kappa-HRP or anti-human IgG Fc-HRP was used as the secondary antibody for antibody detection. Color was developed using ABTS, which is a color developing reagent, and the absorbance at 405 nm was measured.

mouse CNTN4-rabbit Fc = biological target: T2, mouse CNTN4-rabbit Fc (mouse; rabbit, UniProt Q69Z26 19-1000, limits assumed); assay: as above
T2 construct: not shown: rabbit Fc
T2 sequence (looked up): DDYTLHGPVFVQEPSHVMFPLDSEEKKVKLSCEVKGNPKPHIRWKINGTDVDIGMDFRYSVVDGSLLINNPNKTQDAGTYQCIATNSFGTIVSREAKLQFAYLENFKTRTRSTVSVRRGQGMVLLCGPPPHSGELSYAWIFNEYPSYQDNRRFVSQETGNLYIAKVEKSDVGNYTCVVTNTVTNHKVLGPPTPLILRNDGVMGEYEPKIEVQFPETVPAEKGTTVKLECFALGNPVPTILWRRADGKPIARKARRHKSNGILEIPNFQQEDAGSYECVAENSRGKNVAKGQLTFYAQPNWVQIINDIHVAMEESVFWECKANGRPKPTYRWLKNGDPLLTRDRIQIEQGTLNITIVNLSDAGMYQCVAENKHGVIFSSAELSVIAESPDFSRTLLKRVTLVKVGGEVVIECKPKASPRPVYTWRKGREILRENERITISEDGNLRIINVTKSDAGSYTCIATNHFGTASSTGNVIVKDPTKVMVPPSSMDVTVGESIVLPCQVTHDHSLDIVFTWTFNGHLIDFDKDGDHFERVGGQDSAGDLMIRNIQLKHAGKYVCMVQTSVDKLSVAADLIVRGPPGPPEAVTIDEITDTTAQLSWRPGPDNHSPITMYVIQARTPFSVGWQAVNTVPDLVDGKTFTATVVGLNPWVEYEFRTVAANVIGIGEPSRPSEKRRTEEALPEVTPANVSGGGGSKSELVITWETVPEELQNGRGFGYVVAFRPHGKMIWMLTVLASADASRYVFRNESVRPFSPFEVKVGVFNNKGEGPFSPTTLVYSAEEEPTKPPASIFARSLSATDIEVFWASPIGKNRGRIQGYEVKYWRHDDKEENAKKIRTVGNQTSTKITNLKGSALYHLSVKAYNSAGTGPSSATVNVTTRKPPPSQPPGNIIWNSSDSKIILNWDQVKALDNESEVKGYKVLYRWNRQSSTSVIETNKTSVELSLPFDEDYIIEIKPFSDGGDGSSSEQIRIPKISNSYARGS
Description: as §1

[1] = biological target: T3, human CNTN4 antigen expressed on the cell membrane of 293FT cells (human, UniProt Q8IWV2 19-1000); assay: FACS, 293FT cells transfected with human CNTN4, 40 ug/mL, anti-hFc-PE
T3 construct: whole, on cells; also called Human CNTN4 transfected cell
T3 sequence (looked up): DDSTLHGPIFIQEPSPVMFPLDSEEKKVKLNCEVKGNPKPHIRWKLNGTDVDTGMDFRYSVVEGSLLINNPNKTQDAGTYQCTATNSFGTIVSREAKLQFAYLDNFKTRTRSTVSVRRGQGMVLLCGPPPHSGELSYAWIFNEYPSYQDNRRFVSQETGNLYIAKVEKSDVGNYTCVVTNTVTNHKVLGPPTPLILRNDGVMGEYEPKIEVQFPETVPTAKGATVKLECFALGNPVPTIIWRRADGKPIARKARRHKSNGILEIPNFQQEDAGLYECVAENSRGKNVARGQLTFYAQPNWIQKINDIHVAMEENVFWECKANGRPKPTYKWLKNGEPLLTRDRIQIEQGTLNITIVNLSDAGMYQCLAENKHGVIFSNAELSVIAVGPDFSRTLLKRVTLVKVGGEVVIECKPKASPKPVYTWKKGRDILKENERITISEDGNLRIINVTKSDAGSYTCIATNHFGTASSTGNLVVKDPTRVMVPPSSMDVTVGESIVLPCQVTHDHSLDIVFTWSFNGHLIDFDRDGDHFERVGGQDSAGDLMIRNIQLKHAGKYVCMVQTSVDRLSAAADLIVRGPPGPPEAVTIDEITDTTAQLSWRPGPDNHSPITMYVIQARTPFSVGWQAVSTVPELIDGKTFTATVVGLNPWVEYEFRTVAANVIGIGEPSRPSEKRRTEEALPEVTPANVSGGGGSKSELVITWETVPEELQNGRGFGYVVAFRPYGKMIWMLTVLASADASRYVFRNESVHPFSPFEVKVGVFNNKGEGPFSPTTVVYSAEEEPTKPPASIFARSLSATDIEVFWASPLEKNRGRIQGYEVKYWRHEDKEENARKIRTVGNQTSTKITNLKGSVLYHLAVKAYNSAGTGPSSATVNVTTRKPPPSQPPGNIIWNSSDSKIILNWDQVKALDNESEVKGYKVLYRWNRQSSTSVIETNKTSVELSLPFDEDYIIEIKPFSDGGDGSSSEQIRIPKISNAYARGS

B1: anti-CNTN4 IgG A13SF7 (antibody, V domains shown)
VH: AVTLDESGGGLHTPGGALSLVCKASGFTFSSYGMAWVRQAPGKGLEWVAGITSSGSSAGYGPAVKGRATISRDNGQSTVRLQLNNLRAEDTATYYCAKDGYIYSGADSDSIDAWGHGTEVIVSS
VL: ALTQPSSVSANLGGTVEITCSGGSGSYGWYQQKSPGSAPVTLIYDNTNRPSNIPSRFSGSTSGSTSTLTITGVQADDEAVYFCGSADTNAAYAAIFGAGTTLTVL
notes: human IgG4 (S228P)
Human CNTN4-rabbit Fc
  EC50: 0.01 nM
Mouse CNTN4-rabbit Fc
  EC50: 0.01 nM
[1]
  Shift %: 83.2%

B2: anti-CNTN4 IgG A13SF2 (antibody, V domains shown)
VH: AVTLDESGGGLQTPGGALSLICKASGFTFSSYGMAWVRQAPGKGLEWVAGITSSGSSAGYGPAVKGRATISRDNGQSTVRLQLNNLRAEDTATYYCAKDGYIYSGADSDSIDAWGHGTEVIVSS
VL: ALTQPSSVSANLGGTVKITCSGGGGSYGWYRQKSPGSAPVTLIYNNNNRPSDIPSRFSGSTSGSTGTLTITGVQADDEAVYFCGGYDSSAGYAALFGAGTTLTVL
notes: human IgG4 (S228P)
Human CNTN4-rabbit Fc
  EC50: 0.01 nM
Mouse CNTN4-rabbit Fc
  EC50: 0.01 nM
[1]
  Shift %: 83.5%

B3: anti-CNTN4 IgG A35SF38 (antibody, V domains shown)
VH: AVTLDESGGGLHTPGGALSLVCKASGFTFSSYGMAWVRQAPGKGLEWVAGITSSGSSAGYGPAVKGRATISRDNGQSTVRLQLNNLRAEDTATYYCAKDGYIYSGADSDSIDAWGHGTEVIVSS
VL: ALTQPSSVSANLGGTVKLTCSGSSGSYGWYQQKSPGSAPVTLIYNNNNRPSDIPSRFSGSTSGSTGTLTITGVRAEDEAVYFCGGYDSSTYVAIFGAGTTLTVL
notes: human IgG4 (S228P)
Human CNTN4-rabbit Fc
  EC50: 0.01 nM
Mouse CNTN4-rabbit Fc
  EC50: 0.01 nM
[1]
  Shift %: 77.9%

B4: anti-CNTN4 IgG A35SF14 (antibody, V domains shown)
VH: AVTLDESGGGLHTPGGALSLVCKASGFTFSSYGMAWVRQAPGKGLEWVAGITSSGSSAGYGPAVKGRATISRDNGQSTVRLQLNNLRAEDTATYYCAKDGYIYSGADSDSIDAWGHGTEVIVSS
VL: ALTQPSSVSANPGETIKITCSGGGGSYGWYQQKSPGSAPVTVIYNGNNRPSDIPSRFSGSKSGSTATLTITGVQAEDEAVYFCGGYDSGTYSGIFGAGTTLTVL
notes: human IgG4 (S228P)
Human CNTN4-rabbit Fc
  EC50: 0.01 nM
Mouse CNTN4-rabbit Fc
  EC50: 0.01 nM
[1]
  Shift %: 81.6%

B5: anti-CNTN4 IgG A35SF3 (antibody, V domains shown)
VH: AVTLDESGGGLQTPGGGLSLVCKASGFTFSSYGMAWVRQAPGKGLEWVAGITSSGSSAGYGPAVKGRATISRDNGQSTVRLQLNNLRAEDTATYYCAKDGYIYSGADSDSIDAWGHGTEVIVSS
VL: ALTQPSSVSANLGGTVEITCSGSSGSYGWYQQKAPGSAPVTVIYDNTNRPSDIPSRFSGSKSGSTGTLTITGVQAEDEAVYFCGGYDSSTIFGAGTTLTVL
notes: human IgG4 (S228P)
Human CNTN4-rabbit Fc
  EC50: 0.01 nM
Mouse CNTN4-rabbit Fc
  EC50: 0.01 nM
[1]
  Shift %: 81.9%

B6: anti-CNTN4 IgG A13SF74 (antibody, V domains shown)
VH: AVTLDESGGGLQTPGGALSLVCKASGFTLSSYAMQWVRQAPGKGLEWVAGISKGGGSTAYGAAVKGRATISRDNGQSTVRLQLNNLRAEDTATYFCAKTTDSNCCSSDSIDAWGHGTEVIVSS
VL: ALTQPSSVSANPGETVKITCSGNSSGCSWYGWFQQKSPGSALVTVIYDNTNRPSNIPSRFSGSRSGSTATLTITGVQAEDEAIYFCGIADSSGAGIFGAGTTLTVL
notes: human IgG4 (S228P)
Human CNTN4-rabbit Fc
  EC50: 0.11 nM
Mouse CNTN4-rabbit Fc
  EC50: 0.12 nM
[1]
  Shift %: 84.1%
